Test results reported in article PMC6857237.

Key:
[1] = molecular target: Olfm1^BMY (olfactomedin-1 natural short isoform BMY, residues 17–153), disulfide-linked tetramer (mouse (Mus musculus)); test: SAXS; ESRF BM29, 0.615 mg/mL in SEC buffer (150 mM NaCl, 2 mM CaCl2, 20 mM HEPES pH 7.5), 277 K; mass from I0
[2] = molecular target: Olfm1^BMY (olfactomedin-1 natural short isoform BMY, residues 17–153), disulfide-linked tetramer (mouse (Mus musculus)); test: non-reducing SDS-PAGE; Coomassie-stained SDS-PAGE of purified protein with and without DTT; covalent (disulfide-linked) oligomeric state
[3] = molecular target: Olfm1^BMY (olfactomedin-1 natural short isoform BMY, residues 17–153), disulfide-linked tetramer (mouse (Mus musculus)); test: SEC-MALS; analytical Superdex200 Increase 10/300, room temperature, SEC buffer (150 mM NaCl, 2 mM CaCl2, 20 mM HEPES pH 7.5), 0.5 mL/min; aldolase as calibration standard

Measured: stoichiometry N

Sequence of Olfm1^BMY (olfactomedin-1 natural short isoform BMY, residues 17–153), disulfide-linked tetramer (natural protein) (O88998 17-485): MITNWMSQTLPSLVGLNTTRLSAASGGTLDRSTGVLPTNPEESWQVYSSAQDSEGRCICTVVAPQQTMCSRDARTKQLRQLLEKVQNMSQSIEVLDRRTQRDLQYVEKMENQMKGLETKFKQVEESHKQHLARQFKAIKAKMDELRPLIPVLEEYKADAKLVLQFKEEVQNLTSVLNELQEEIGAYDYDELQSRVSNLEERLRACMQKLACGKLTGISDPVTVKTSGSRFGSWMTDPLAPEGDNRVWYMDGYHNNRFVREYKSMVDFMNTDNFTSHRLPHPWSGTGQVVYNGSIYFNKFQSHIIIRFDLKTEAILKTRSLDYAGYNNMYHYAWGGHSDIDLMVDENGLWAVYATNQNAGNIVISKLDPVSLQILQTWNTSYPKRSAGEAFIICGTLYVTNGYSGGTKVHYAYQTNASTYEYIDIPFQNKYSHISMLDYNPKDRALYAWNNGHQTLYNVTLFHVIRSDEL

Olfm1^BMY (olfactomedin-1 natural short isoform BMY, residues 17–153), disulfide-linked tetramer (natural protein)
4: all assays above
